Results on 1 substance are retold here after patent US20160136234A1.

Some targets named below: BTK(R28H) (h) (human) (UniProt Q06187); Lck (h) (human) (UniProt P06239); CDK5/p35 (h) (human) (UniProt Q00535); PKCδ (h) (human) (UniProt Q05655); CDK2/cyclinE (h) (human) (UniProt P24941); MKK6 (h) (human) (UniProt P52564); PKBβ (h) (human) (UniProt P31751); ZAP-70 (h) (human) (UniProt P43403); Fyn (h) (human) (UniProt P06241); CaMKIIβ (h) (human) (UniProt Q13554); Flt4 (h) (human) (UniProt P35916); CK2 (h) (human) (UniProt P68400); MINK (h) (human) (UniProt Q8N4C8).

Experiment in all cases: cell-based or functional assay
In another assay the target is T1, PKD2 (h) (human) (UniProt Q9BZL6).
T1 sequence (looked up): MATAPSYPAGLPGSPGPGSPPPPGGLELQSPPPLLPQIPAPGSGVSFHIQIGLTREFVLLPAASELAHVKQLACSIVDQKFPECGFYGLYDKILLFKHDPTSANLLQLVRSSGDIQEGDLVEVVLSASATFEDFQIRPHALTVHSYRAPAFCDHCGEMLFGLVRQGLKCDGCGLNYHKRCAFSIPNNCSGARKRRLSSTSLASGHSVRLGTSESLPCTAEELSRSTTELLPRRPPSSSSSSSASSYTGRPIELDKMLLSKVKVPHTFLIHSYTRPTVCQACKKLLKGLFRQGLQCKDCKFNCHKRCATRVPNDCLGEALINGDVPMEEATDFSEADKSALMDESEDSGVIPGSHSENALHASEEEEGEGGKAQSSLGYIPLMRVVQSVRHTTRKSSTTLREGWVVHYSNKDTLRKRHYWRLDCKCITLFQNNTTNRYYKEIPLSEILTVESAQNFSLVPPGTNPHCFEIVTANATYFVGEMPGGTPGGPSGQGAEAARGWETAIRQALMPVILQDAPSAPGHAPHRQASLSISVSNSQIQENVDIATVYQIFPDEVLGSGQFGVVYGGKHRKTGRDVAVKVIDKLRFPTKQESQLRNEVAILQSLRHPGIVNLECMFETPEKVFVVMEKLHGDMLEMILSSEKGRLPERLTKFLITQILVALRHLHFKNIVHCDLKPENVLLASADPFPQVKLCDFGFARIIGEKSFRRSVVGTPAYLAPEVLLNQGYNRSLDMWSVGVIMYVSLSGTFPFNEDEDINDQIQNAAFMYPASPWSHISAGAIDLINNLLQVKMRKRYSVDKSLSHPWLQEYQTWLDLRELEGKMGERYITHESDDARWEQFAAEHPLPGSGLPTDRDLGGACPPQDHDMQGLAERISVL

The target in the next assay is T2, BrSK1 (h) (human) (UniProt Q8TDC3).
T2 sequence (looked up): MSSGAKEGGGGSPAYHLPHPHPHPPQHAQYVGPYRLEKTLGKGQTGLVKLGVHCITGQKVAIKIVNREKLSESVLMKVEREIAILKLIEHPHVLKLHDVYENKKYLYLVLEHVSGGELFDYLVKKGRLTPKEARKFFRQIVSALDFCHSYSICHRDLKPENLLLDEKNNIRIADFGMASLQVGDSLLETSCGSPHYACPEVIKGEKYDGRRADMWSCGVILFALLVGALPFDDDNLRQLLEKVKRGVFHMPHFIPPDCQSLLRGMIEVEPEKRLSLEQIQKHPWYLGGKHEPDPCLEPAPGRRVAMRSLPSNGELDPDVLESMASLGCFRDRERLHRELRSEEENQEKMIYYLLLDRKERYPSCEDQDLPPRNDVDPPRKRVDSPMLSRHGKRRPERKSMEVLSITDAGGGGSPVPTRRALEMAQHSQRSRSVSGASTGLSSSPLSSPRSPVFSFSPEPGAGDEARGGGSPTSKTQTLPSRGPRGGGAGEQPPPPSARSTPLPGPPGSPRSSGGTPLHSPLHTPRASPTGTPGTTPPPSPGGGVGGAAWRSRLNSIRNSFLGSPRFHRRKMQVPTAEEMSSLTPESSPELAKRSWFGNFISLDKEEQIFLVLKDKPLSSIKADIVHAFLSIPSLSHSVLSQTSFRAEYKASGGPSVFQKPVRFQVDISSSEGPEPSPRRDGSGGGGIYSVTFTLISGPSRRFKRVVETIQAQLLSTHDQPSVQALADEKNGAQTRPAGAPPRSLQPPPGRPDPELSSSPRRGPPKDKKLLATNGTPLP

Chain of CaMKIIβ (h) (human) (Q13554 whole entry): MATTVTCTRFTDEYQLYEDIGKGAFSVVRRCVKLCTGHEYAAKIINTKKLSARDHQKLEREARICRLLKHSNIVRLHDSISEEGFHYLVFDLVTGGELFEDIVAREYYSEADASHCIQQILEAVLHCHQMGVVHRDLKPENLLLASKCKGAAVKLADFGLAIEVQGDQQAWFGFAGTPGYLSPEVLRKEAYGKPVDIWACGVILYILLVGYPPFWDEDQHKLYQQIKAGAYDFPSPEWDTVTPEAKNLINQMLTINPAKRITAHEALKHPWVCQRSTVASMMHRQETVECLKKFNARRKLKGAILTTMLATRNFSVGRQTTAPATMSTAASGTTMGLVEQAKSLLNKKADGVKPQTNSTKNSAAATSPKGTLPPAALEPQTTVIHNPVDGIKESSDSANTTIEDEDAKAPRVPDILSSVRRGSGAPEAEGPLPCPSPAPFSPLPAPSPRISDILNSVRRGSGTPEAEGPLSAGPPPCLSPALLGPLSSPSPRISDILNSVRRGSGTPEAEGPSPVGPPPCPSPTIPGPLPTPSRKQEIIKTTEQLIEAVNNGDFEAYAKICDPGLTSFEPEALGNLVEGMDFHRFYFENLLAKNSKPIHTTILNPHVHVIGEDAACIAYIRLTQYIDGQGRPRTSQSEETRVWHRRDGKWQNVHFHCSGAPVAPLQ
Chain of ZAP-70 (h) (human) (P43403 whole entry): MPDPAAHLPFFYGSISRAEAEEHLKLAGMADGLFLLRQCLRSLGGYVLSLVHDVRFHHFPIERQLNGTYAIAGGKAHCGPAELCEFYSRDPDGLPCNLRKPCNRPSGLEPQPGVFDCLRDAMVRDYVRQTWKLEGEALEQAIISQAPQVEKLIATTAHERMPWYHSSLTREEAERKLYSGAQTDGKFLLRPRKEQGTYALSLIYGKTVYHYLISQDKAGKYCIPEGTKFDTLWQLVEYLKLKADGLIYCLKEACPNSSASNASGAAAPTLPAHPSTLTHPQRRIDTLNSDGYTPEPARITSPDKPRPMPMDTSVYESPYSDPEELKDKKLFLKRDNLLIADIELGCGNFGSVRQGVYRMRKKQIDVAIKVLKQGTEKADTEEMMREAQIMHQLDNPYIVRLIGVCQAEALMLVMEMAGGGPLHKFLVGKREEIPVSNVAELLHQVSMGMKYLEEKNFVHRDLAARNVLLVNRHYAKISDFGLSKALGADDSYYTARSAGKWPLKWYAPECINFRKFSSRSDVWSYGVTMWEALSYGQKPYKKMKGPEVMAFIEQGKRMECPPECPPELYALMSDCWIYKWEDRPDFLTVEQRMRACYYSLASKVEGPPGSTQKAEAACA
Chain of Flt4 (h) (human) (P35916 800-1363 limits assumed): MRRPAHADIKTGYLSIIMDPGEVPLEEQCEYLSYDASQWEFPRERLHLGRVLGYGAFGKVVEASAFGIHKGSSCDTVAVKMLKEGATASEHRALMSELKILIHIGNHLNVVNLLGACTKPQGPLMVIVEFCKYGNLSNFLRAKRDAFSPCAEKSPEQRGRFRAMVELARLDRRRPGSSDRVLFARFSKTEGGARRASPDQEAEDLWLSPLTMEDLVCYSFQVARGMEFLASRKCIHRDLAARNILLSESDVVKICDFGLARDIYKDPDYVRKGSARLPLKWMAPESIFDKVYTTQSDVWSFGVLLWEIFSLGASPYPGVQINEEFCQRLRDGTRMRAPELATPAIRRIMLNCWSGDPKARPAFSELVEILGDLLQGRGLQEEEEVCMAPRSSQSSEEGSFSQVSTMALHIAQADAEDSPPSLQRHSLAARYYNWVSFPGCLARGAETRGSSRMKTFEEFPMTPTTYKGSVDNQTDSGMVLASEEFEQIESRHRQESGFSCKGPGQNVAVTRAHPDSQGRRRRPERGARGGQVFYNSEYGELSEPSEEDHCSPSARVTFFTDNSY
Chain of PKBβ (h) (human) (P31751 whole entry): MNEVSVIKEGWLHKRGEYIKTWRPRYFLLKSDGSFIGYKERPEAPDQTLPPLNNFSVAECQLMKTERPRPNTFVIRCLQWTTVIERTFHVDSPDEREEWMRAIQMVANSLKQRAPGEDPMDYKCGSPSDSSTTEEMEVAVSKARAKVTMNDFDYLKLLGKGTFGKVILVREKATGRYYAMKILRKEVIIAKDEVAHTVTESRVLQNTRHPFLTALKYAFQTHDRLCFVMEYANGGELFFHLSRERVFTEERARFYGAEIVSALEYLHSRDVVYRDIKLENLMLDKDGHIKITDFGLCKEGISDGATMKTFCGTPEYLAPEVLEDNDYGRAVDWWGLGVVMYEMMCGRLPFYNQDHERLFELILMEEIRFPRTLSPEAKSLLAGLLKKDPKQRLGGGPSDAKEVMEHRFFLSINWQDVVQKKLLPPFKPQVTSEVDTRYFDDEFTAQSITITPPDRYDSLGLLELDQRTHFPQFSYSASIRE

Regarding MMI-0300 (peptide), the % activity at 100 µM with BTK(R28H) (h) (human) is 74%; with Lck (h) (human), -2%; in the assay with CDK5/p35 (h) (human) it was 79%; with PKCδ (h) (human) it was 101%; with PKD2 (h) (human) it was 33%; in the assay with CDK2/cyclinE (h) (human), 94%. Besides, the % activity at 100 µM in the assay with MKK6 (h) (human) came out at 48%; with BrSK1 (h) (human), 67%; with PKBβ (h) (human), 84%; with ZAP-70 (h) (human) it was 75%; in the assay with Fyn (h) (human), 74%; with CaMKIIβ (h) (human) it was 2%. Besides, the % activity at 100 µM with Flt4 (h) (human) was determined as 83%; in the assay with CK2 (h) (human), 90%; with MINK (h) (human), 48%.
